We go through three molecules from US20130330359A1 (AbbVie / Abbott, published 2013).

The target of assay [1] is T1, RGMc antigen: amino acids 33-391 of RGMc followed by human Fc (human, UniProt Q6ZVN8 33-391).
T1 construct: also called RGMc-huFc; RGMc-Fc; not shown: human Fc
T1 sequence: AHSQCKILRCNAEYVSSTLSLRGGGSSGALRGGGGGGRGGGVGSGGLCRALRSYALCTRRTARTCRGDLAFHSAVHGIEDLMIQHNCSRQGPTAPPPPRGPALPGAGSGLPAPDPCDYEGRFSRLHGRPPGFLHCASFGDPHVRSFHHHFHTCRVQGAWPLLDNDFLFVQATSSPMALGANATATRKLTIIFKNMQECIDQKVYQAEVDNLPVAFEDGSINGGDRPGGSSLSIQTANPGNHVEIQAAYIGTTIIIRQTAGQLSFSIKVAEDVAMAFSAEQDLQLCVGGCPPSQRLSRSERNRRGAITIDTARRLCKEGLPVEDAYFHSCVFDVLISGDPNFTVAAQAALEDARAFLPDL
The assay can be described thus: chemiluminescence immunoassay: supernatant mAb captured on sheep anti-mouse IgG Fc, RGMc-huFc at 200 ng/mL, acridinium-labeled goat anti-RGMc detection. How it is done:
Cell supernatant samples were analyzed for anti-RGMc antibodies by Chemiluminescence immunoassay (CIA). Sheep anti-mouse IgG Fc (Jackson Immunoresearch, West Grove, Pa.) was coated on 96 well micro-titer CIA plates (NUNC) at 5 ug/mL. After the capture reagent had been coated on the solid phase, it was removed and any open binding sites on the plates were blocked using a Fish gel/PBS (2% v/v) block solution. The wells were washed with distilled water and cell supernatants were added to the blocked plates and allowed to incubate at room temperature for at least one hour. The anti-mouse IgG Fc captures the anti-RGMc mouse antibody from the supernatant. Following the incubation, the supernatants were washed off using distilled water. A mouse/human IgG chimeric antibody (Abbott Laboratories) diluted in fish gel block to 5 ug/ml was added to each well and incubated for approximately 30 minutes at room temperature to block any captured mAbs that are specific for human IgG Fc portion of the immunogen. Following the incubation, the human IgG blocking solution was washed off using distilled water. RGMc-huFc antigen was then added to the plates at 200 ng/mL in fish gel block and incubated for 30 minutes at room temperature. Following this incubation, the antigen was washed from the plates using distilled water. Acridinium labeled goat anti-RGMc polyclonal antibody (R&D Systems, Minneapolis, Minn.) was diluted to 200 ng/ml in fish gel block, then added to the plates and allowed to incubate for 30 minutes at room temperature. The plates were washed with distilled water then processed on the Microbeta Jet instrument (Perkin Elmer, Waltham, Mass.). The Microbeta Jet adds Architect© Pre-Trigger and Trigger solutions (Abbott Laboratories). The plates are then read for flash chemiluminescence in luminescent counts per second (LCPS). […] The positive control (PC) used in this assay was spent medium from unfused splenocytes harvested from mouse #814 that were cultured for 7 to 10 days at 37° C.

Assay [2] addresses T2, carrier free RGMb (R&D Systems) (UniProt Q6NW40 46-413, limits assumed).
T2 construct: also called RGMb-CF
T2 sequence (looked up): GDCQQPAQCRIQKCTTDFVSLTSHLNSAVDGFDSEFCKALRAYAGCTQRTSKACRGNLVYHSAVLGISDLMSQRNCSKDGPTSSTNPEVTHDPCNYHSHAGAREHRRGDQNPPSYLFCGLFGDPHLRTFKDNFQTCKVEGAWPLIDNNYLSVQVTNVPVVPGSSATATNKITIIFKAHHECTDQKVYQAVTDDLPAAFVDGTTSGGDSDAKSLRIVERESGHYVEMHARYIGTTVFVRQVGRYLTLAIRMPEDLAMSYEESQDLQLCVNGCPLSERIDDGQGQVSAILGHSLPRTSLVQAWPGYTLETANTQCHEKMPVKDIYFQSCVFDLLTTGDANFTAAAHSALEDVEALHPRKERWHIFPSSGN
The assay can be described thus: direct EIA: carrier-free RGMb coated at 0.5 ug/mL; supernatant diluted 1:125; goat anti-mouse IgG-HRPO. How it is done:
(§1) Clones were then tested for cross-reactivity with RGMa and RGMb by EIA. Carrier free RGMa, RGMb, or RGMc (R&D Systems) was coated on the solid phase of micro-titer EIA plates at 0.5 ug/mL. After the antigen had been coated on the solid phase, it was removed and any open binding sites on the plates were blocked using fish gel block solution. The wells were washed with distilled water following this incubation. Cell supernatants and control reagents were added to the blocked plates and allowed to incubate at room temperature for at least one hour. The negative control was a purified mouse mAb from a different antigen system. The positive control for RGMa, RGMb, & RGMc was a goat anti-RGMa, RGMb, or RGMc polyclonal antibody (R&D Systems). Following this incubation, the solutions were removed from the plates and they were washed with distilled water. Donkey anti-Goat IgG-HRPO diluted to approximately 200 ng/mL in block solution was added to the plates with the positive control test samples and goat anti-mouse IgG-HRPO (Jackson Immunoresearch) diluted to approximately 200 ng/mL in block solution was added to the plates with the fusion #1 test samples. All plates were allowed to incubate for 30 minutes at room temperature. The plates were washed with distilled water and o-phenylenediamine substrate was used as the chromogen to generate signal. Plates were read at 492 nm and the results were analyzed.

Assay [3] has as its target T2, carrier free RGMb (R&D Systems). The assay can be described thus: EIA on coated carrier-free RGMb (summary of specificity). The procedure: as §1
For assay [4], the target named is T3, carrier free RGMa (R&D Systems) (UniProt Q96B86 48-422, limits assumed).
T3 construct: also called RGMa-CF
T3 sequence (looked up): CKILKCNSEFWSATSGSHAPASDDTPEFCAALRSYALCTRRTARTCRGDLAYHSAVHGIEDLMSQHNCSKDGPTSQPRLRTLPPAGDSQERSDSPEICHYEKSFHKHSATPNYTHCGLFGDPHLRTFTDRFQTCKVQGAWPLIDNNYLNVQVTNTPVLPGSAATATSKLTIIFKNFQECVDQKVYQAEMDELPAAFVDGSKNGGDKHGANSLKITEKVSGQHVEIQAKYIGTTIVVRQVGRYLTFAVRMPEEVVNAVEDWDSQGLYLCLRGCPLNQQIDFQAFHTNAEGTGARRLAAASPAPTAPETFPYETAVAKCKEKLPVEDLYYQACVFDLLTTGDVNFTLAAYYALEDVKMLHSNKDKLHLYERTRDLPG
The assay can be described thus: EIA on coated carrier-free RGMa (summary of specificity). The procedure: as §1

Assay [5] deals with T3, carrier free RGMa (R&D Systems). The assay can be described thus: direct EIA: carrier-free RGMa coated at 0.5 ug/mL; supernatant diluted 1:125; goat anti-mouse IgG-HRPO. How it is done:
as §1

B1: 1A-2989-187 (antibody, V domains shown)
VH: EVQLQQSGAELVRSGASVKLSCTASGFNIRDFYIHWVKQRPEQGLEWLGWIDPENGDIEYAPKFQGKATMTADTSSNTAYLQLNSLTSEDTALYYCNGNGYYLDYWGQGTTLTVSS
VL: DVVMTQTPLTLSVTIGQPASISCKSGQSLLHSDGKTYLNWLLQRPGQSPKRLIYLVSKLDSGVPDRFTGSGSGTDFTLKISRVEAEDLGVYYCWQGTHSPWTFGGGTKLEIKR
B1 registered an LCPS in assay [1] of 2500 LCPS. Besides, the “absorbance at 492 nm” value in assay [2] and in assay [5] was 0.07 each time. The binding result in assay [3] and in assay [4] was “no binding” each time.

B2: 1A-2860-475 (antibody, V domains shown)
VH: DVLLQESGPDLVKPSQSLSLTCTVTGYSISSGYSWHWIRQFPGNKLEWMAYIHYTGNTNYNPSLKSRISITRDTSKNQFFLHLNSVTTEDTATYYCALFGLSGFWGQGTLVTVSA
VL: DVLMTQTPLSLPVSLGDQASISCRSSQTIVHSNGNTYLDWYLQKPGQSPKVLIYKVSNRFSGVPDRFSGSGSGTDFTLKISRVEAEDLGVYFCLQGSHVPWTFGGGTQLEIKR
notes: The parent line 1A-2860 and subclone 1A-2860-177 used in the assays are treated here as the same antibody; also called 1A-2860-177
Consider B2, for which the LCPS in assay [1] stood at 6610 LCPS. The “absorbance at 492 nm” value came to 0.06 in assay [2] and 0.08 in assay [5]. The binding result in assay [3] and in assay [4] was “no binding” in each case.

B3: 1B-3363-715 (antibody, V domains shown)
VH: DVQLQESGPDLVKPSQSLSLTCTVTGYSITSGYSWHWIRQFPGNKLEWMGYIHYSGNTDYNPSLKSRISFTRDTSKNQFFLQLNSVTTEDTATYFCAIGTGPWGQGTTLTVSS
VL: DVLMTQTPLSLPVSLGDQASISCRSSQNIVHSNGHTYLEWYLQKPGQSPKLLIYKVSNRFSGVPDRFSGSGSGTDFTLKISRVEAEDLGVYYCFQGSHVPWTFGGGTKLEIKR
notes: The parent line 1B-3363 and subclone 1B-3363-502 used in the assays are treated here as the same antibody; also called 1B-3363-502
Take B3: the LCPS in assay [1] is 5260 LCPS. Also, the “absorbance at 492 nm” value in assay [2] and in assay [5] was 0.09 in each case. The binding result in assay [3] and in assay [4] was “no binding” in each case.
